Laboratory results published in patent US20180188257A1 (UNIVERSITY OF ROCHESTER, published 2018).

How the values were obtained:
[1] = target: T1, p53 (UniProt P04637 1-393, limits assumed); test: co-immunoprecipitation from cell lysate with septin-2 pull-down antibody, western blot
T1 construct: Endogenous protein in cell lysates
Description: (§1) For immunoprecipitation studies, two million SKOV3 WT and OVCAR-8 cells were seeded onto 100 mm dishes (Corning) and cultured to 80% confluency in complete DMEM media. Cells were rinsed in DPBS (Gibco), lysed, and quantified using Bradford assay. Lysates were adjusted to 1 μg/μl total protein concentration, with 500 μl lysate used for each IP reaction. Identical samples were prepared for pull-down antibody (Septin-2 or HE4) and isotype-matched IgG control (#3900, Cell Signaling), with antibody concentration identical at 40 ng/μl. Further processing and PAGE analysis of samples was conducted to resolve the bands. The resulting membranes were probed for HE4 or Septin-2, p21 or P53, B-tubulin and other proteins of interest.

[2] = target: T2, β-tubulin (UniProt P07437 1-444); test: as above
T2 construct: Endogenous protein in cell lysates; also called B-tubulin
T2 sequence (P07437 whole entry): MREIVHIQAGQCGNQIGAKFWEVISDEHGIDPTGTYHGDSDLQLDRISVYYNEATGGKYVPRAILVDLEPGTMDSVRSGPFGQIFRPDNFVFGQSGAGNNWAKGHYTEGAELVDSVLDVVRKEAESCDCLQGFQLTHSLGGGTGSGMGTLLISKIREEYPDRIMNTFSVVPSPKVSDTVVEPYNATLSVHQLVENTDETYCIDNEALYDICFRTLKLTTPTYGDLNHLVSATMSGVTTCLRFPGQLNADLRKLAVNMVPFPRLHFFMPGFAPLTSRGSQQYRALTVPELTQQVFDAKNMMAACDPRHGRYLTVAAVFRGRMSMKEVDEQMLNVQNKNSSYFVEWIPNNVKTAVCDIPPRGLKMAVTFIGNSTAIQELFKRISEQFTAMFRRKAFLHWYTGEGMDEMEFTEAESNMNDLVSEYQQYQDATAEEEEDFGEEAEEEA
Description: as §1

T1 sequence (P04637 whole entry): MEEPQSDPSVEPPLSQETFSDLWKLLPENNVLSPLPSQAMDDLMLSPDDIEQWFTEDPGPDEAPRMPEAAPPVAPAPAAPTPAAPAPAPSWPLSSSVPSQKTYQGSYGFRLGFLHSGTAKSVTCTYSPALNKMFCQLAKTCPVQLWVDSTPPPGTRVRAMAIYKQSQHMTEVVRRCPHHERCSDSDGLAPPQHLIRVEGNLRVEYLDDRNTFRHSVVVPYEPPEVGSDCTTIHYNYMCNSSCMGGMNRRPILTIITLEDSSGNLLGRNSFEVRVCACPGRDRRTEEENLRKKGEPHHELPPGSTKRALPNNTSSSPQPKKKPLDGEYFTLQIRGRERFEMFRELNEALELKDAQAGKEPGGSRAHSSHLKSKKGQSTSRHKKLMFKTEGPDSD

B1: septin-2 (other)
chain: MSKQQPTQFINPETPGYVGFANLPNQVHRKSVKKGFEFTLMVVGESGLGKSTLINSLFLTDLYPERVIPGAAEKIERTVQIEASTVEIEERGVKLRLTVVDTPGYGDAINCRDCFKTIISYIDEQFERYLHDESGLNRRHIIDNRVHCCFYFISPFGHGLKPLDVAFMKAIHNKVNIVPVIAKADTLTLKERERLKKRILDEIEEHNIKIYHLPDAESDEDEDFKEQTRLLKASIPFSVVGSNQLIEAKGKKVRGRLYPWGVVEVENPEHNDFLKLRTMLITHMQDLQEVTQDLHYENFRSERLKRGGRKVENEDMNKDQILLEKEAELRRMQEMIARMQAQMQMQMQGGDGDGGALGHHV
notes: Endogenous protein in lysates of the ovarian cancer cell lines SKOV3 WT and OVCAR-8, pulled down with a septin-2 antibody
Q: Does B1 bind [1]?
A: Result: no binding

Q: Does B1 bind [2]?
A: Result: no binding
